“And” between values parts separate entries of the source, which are not always exact repeats. Equal entries are not always repeated. Bridge positions count the residues as written; N and C are the ends.
Tests used:
α‐thrombin (αT) = experiment: enzyme inhibition (amidolytic activity on S2238)
[1] = target: recombinant wild type α‐thrombin; experiment: other fluorescence titration; intrinsic fluorescence of thrombin (50 nM) at 334 nm recorded at increasing peptide concentration; TBS pH 7.4, 0.15 M NaCl, 0.1% PEG-8000, 25°C; one-site model
[2] = target: [F]‐Haem(45–57), N^α‐fluoresceinated analogue of the peptide 45–57 (Haemadipsa sylvestris); experiment: other fluorescence titration; thrombin (S195A by the methods) or its hirudin complex added to the fluoresceinated peptide (60 nM); excitation 492 nm, emission 516 nm; TBS, 25°C
[3] = target: recombinant wild type α‐thrombin; experiment: enzyme inhibition (amidolytic activity on S2238)

“H-IRFGMGKVPCPDGEVGYTCDCGEKICLYGQSCNDGQCSGDPKPSSEFEEFEIDEEEK-OH (disulfide 10-19, 21-32, 26-37)” showed a T m higher than hirudin of 22 °C.

Substance Haem(1–10) wild type (peptide) has a Ki (α‐thrombin (αT)) of 1900 nM.

Work on Haem(45–57) (peptide) yielded a Kd [1] of 1600 nM.

With “catalytically inactive αT S195A mutant (enzyme)” the Kd [2] was 350 nM.

In the case of “full‐length haemadin Met5nLeu analogue (natural protein)”, the fold increase of KI(fast) against wild-type haemadin (α‐thrombin (αT)) is reported as 2 fold and the fold increase of KI(slow) against wild-type haemadin (α‐thrombin (αT)) is reported as 2 fold.

With “full‐length wild‐type haemadin 1–57 (natural protein)” the Ki (α‐thrombin (αT)) was 0.00023 nM and 0.0015 nM, the Ki [3] was 0.000214 nM and the koff [3] was 4.83e-05 s⁻¹. It also gave a kon [3] of 2.25e+08 M⁻¹ s⁻¹.

For preformed S195A‐hirudin complex, the Kd [2] was 12800 nM.

From article PMC10683372
